This is an account of results in patent US20250154198A1, “PEPTIDE INHIBITORS OF INTERLEUKIN-23 RECEPTOR” (Zealand Pharma A/S, priority 2021, published 2025).

*1 amine or outer side, *2 acyl side, *3 side chain or, on linkers, in order; H or OH if unused. Bridges are numbered along the chain shown (N, C = ends). [ ]: non-standard residue; d: D form. 1,3‑dibromopropan‑2‑one = linker (CAS 816-39-7) joining two Cys as 1,3-dithio-propan-2-one bridge -SCH2C(=O)CH2S-; 2Nal = N[C@@H](Cc1ccc2ccccc2c1)C(=O)O; AEF = NCCOc1ccc(C[C@H](N)C(=O)O)cc1; αMeL = CC(C)C[C@](C)(N)C(=O)O; CH2COCH2 = O=C(C[*:1])C[*:2]; αMeK = C[C@](N)(CCCCN)C(=O)O; 3Amb = NCc1cccc(C(=O)O)c1; Abu = CC[C@H](N)C(=O)O A value given as a limit tells only on which side of the number the result lay.

T1: human IL-23R endogenously expressed on DB cells (CRL-2289) (human, UniProt Q5VWK5 24-629)
T1 sequence (looked up): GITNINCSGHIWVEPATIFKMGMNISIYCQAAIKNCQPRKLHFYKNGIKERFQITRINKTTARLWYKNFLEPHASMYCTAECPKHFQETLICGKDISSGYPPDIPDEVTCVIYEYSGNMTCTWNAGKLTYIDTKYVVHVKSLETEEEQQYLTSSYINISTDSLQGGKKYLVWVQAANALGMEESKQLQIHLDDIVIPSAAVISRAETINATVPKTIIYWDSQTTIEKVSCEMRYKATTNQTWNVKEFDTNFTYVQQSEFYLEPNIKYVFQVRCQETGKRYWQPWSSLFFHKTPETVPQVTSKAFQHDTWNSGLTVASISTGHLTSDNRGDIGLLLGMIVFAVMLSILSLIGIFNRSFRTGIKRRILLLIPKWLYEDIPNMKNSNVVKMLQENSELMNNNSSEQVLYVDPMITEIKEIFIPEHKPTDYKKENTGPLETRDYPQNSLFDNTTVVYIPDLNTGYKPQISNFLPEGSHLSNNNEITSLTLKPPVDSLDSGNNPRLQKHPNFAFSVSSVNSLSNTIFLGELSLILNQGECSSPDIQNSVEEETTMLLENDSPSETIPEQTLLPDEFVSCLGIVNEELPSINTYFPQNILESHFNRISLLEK

T2: Nluc-IL23R fusion protein (human, UniProt Q5VWK5 22-629)
T2 construct: range 22-629; Stably expressed in HEK293 cells; also called hIL-23R; human IL-23R fused to a Nanoluc luciferase enzyme; not shown: Nanoluc luciferase (Promega N1371 plasmid) at the N-terminus
T2 sequence (looked up): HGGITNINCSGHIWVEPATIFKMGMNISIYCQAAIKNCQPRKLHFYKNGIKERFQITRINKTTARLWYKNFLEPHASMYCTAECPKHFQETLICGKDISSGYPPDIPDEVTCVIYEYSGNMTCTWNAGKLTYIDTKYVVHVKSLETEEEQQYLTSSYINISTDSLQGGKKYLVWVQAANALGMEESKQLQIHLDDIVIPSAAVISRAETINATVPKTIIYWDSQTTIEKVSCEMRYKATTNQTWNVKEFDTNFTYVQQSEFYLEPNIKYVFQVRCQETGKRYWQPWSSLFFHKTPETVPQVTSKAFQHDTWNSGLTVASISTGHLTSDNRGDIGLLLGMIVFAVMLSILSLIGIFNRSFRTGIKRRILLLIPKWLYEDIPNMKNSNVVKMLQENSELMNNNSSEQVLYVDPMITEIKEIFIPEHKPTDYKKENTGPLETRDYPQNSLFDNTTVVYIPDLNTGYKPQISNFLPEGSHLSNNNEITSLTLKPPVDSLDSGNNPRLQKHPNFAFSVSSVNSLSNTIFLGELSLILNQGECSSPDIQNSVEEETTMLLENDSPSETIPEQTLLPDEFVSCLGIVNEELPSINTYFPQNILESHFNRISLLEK

B1: Compound 57 (peptide)
peptide: Ac-DETCWQCW[2Nal][αMeL]KR-NH2
modifications: lactam 2-11; linker 4-7 via CH2COCH2
SMILES: CC(=O)N[C@@H](CC(=O)O)C(=O)N[C@H]1CCC(=O)NCCCC[C@@H](C(=O)N[C@@H](CCCNC(=N)N)C(N)=O)NC(=O)[C@](C)(CC(C)C)NC(=O)[C@H](Cc2ccc3ccccc3c2)NC(=O)[C@H](Cc2c[nH]c3ccccc23)NC(=O)[C@@H]2CSCC(=O)CSC[C@H](NC(=O)[C@H]([C@@H](C)O)NC1=O)C(=O)N[C@@H](Cc1c[nH]c3ccccc13)C(=O)N[C@@H](CCC(N)=O)C(=O)N2
B2: Compound 1 (peptide)
peptide: DCSCWQCWWXCR
modifications: H-DC(1a)SC(2a)WQC(2a)WW[2-Me-Leu]C(1a)R-[NH2]; (1a)=[2,11] and (2a)=[4,7] 1,3-dithio-propan-2-one bridges
B3: Compound 30 (peptide)
peptide: KSCWQCHXLER
HELM: PEPTIDE1{[ac].K.S.C.W.Q.C.H.[O=C([C@H](Cc1ccc2ccccc2c1)N[*:1])[*:2]].L.E.R.[am]}|CHEM1{[O=C(C[*:1])C[*:2]]}$PEPTIDE1,PEPTIDE1,2:R3-11:R3|PEPTIDE1,CHEM1,4:R3-1:R1|PEPTIDE1,CHEM1,7:R3-1:R2$$$V2.0
SMILES: CC(=O)N[C@H]1CCCCNC(=O)CC[C@@H](C(=O)N[C@@H](CCCNC(=N)N)C(N)=O)NC(=O)[C@H](CC(C)C)NC(=O)[C@H](Cc2ccc3ccccc3c2)NC(=O)[C@H](Cc2c[nH]cn2)NC(=O)[C@@H]2CSCC(=O)CSC[C@H](NC(=O)[C@H](CO)NC1=O)C(=O)N[C@@H](Cc1c[nH]c3ccccc13)C(=O)N[C@@H](CCC(N)=O)C(=O)N2
B4: Compound 40 (peptide)
peptide: [3Amb]SCWQCW[2Nal][αMeL]ER-NH2
modifications: lactam N-10; linker 3-6 via CH2COCH2
SMILES: CC(C)C[C@]1(C)NC(=O)[C@H](Cc2ccc3ccccc3c2)NC(=O)[C@H](Cc2c[nH]c3ccccc23)NC(=O)[C@@H]2CSCC(=O)CSC[C@H](NC(=O)[C@H](CO)NC(=O)c3cccc(c3)CNC(=O)CC[C@@H](C(=O)N[C@@H](CCCNC(=N)N)C(N)=O)NC1=O)C(=O)N[C@@H](Cc1c[nH]c3ccccc13)C(=O)N[C@@H](CCC(N)=O)C(=O)N2
B5: Compound 35 (peptide)
peptide: Ac-GCTCWECW[2Nal][αMeL]CR-NH2
modifications: linker 2-11, 4-7 via CH2COCH2
SMILES: CC(=O)NCC(=O)N[C@H]1CSCC(=O)CSC[C@@H](C(=O)N[C@@H](CCCNC(=N)N)C(N)=O)NC(=O)[C@](C)(CC(C)C)NC(=O)[C@H](Cc2ccc3ccccc3c2)NC(=O)[C@H](Cc2c[nH]c3ccccc23)NC(=O)[C@@H]2CSCC(=O)CSC[C@H](NC(=O)[C@H]([C@@H](C)O)NC1=O)C(=O)N[C@@H](Cc1c[nH]c3ccccc13)C(=O)N[C@@H](CCC(=O)O)C(=O)N2

The first test has as its target T1, human IL-23R endogenously expressed on …. As to the kind of experiment: cell-based or functional assay.
For B1, the “IC50 (pSTAT3)” value worked out at 167 nM.

As to Ac-DESCWQCWWLK-NH2 (lactam 2-11; linker 4-7 via 1,3‑dibromopropan‑2‑one) [Compound 11], the “IC50 (pSTAT3)” value is > 1 µM.

In the case of Ac-[Abu]QTWQC[AEF]W[αMeK]ENG-NH2 (thioether 1-6) [Compound C], the “IC50 (pSTAT3)” value is 13.8 nM.

As to B2, the “IC50 (pSTAT3)” value turned out to be 783 nM.

For the molecule Ac-ESCWQCWWLK-NH2 (lactam 1-10; linker 3-6 via 1,3‑dibromopropan‑2‑one) [Compound 12], the “IC50 (pSTAT3)” value was > 1 µM.

Regarding B3, the “IC50 (pSTAT3)” value was found to be 68.6 nM.

A further test has as its target T2, Nluc-IL23R fusion protein. As to the kind of experiment: BRET displacement of TAMRA-labelled peptide, Nluc-IL23R membranes. A general note: BRET reads energy transfer from a luciferase to a nearby fluorophore.
Molecule B1 gave an inhibition constant Ki of 68 nM.

Take B4: the Ki was determined as 18.1 nM.

As to Ac-DESCWQCWWLK-NH2 (lactam 2-11; linker 4-7 via 1,3‑dibromopropan‑2‑one) [Compound 11], the Ki worked out at 706 nM.

For Ac-[Abu]QTWQC[AEF]W[αMeK]ENG-NH2 (thioether 1-6) [Compound C], the Ki amounted to 2.11 nM.

B2 displayed a Ki of 79.8 nM.

Ac-KSCWQC[AEF][2Nal]LER-NH2 (lactam 1-10; disulfide 3-6) [Compound 54] gave a Ki of 178 nM.

In turn, Ac-ESCWQCWWLK-NH2 (lactam 1-10; linker 3-6 via 1,3‑dibromopropan‑2‑one) [Compound 12] displayed a Ki of 373 nM.

B3 gave a Ki of 5.53 nM.

B5 came in with a Ki of 41.2 nM.

The term Ki denotes the dissociation constant of the complex between target and ligand, obtained from inhibition or displacement. Low readings indicate higher affinity, high ones lower affinity.
